These results are taken from article PMC11876737, “Side-by-Side Comparison of the In Vivo Performance of [^212Pb]Pb-DOTAMTATE and Other SSTR2-Targeting Compounds” (Journal of Nuclear Medicine, 2025).

Like-named read-outs stand apart in the source and are kept apart here. Positions of bridges follow the written chain, without caps; N, C: chain ends. Non-standard residues stand in square brackets, D forms with d. Residues, ends and D or L forms follow the SMILES beside them. *: point of attachment. DO3AM = NC(=O)CN1CCN(CC(N)=O)CCN(CC(=O)*)CCN(CC(N)=O)CC1; dPhe(4-NHCONH2) = NC(=O)Nc1ccc(C[C@@H](N)C(=O)O)cc1; Dihydroorotyl(S) = O=C1C[C@@H](C(=O)*)NC(=O)N1; Phe(4-Cl) = N[C@@H](Cc1ccc(Cl)cc1)C(=O)O; Phe(4-NH2) = Nc1ccc(C[C@H](N)C(=O)O)cc1

Data set [1] concerns SSTR2-overexpressing tumors, AR42J. Briefly: Biodistribution of ^212Pb SSTR2 analogs in AR42J tumor-bearing mice. In kind it is in vivo, athymic nude female mice. The protocol:
(§1) The background was automatically subtracted from the counts. A standard was also used for decay correction to time of injection or time of collection. The percent injected dose per gram (%ID/g) was calculated for each organ collected.  FIGURE 2. In vivo distribution of ^212Pb-radiolabeled SSTR2 analogs in athymic nude female mice carrying subcutaneous AR42J tumors. […] Tissue uptake is expressed as %ID/g ± SD decay corrected to time of injection (n = 4-5). In our study, we propose to use the integral of the time-activity curve, also known as the AUC, as a surrogate measure for estimating the absorbed dose. We calculated all SSTR2 analogs' AUC for kidneys and tumors including tumor-to-kidney ratios (T/K AUC ratio) (Figs. 3 and 4). We observed distinct AUC patterns and consequently distinct T/K AUC ratios across the different compounds.

Test in data set [2]: as above
In kind it is in vivo, athymic nude female mice. Conditions: female, athymic nude, mouse, in vivo, iv, total radioactivity. Here is the method:
as §1

Data set [3] concerns somatostatin receptor 3. More on the design: method as in PMID 10774879. Conditions: cited from earlier work.
The test system of data set [4] is SSTR2. Conditions: cited from earlier work.
For data set [5], the system named is somatostatin receptor 5. More on the design: method as in PMID 10774879. The note with it: cited from earlier work.
Data set [6] can be described thus: ^212Pb chelate RCY after 24 h at room temperature (instant thin-layer chromatography). In kind it is physicochemical. The note with it: 24 h at RT; 444 MBq/50 μg (27.5 nmol); triplicate ± SD. The protocol: The radioisotope-free compounds were diluted in metal-free water at needed concentrations and were stored at -20°C. ^212Pb was produced using ^224Ra generators (Orano Med LLC). Chelation was performed by incubating 27.5 nmol of peptide per 444 MBq of ^212Pb for 10 min at room temperature in 0.4 M ammonium acetate buffer, with a pH of 6.1. Radiochemical purity, assayed by instant thin-layer chromatography was used to confirm that ^212Pb chelation was greater than 95%. Radiolabeled peptides were spotted onto an instant thin-layer chromatography strip and allowed to migrate in a 22% citrate buffer. The instant thin-layer chromatography strip was then cut in half and counted using a calibrated Perkin Elmer Wizard2 2470 automatic γ-counter with an energy window of 185-250 keV considering ^212Pb major emitted γ-rays (238 keV). Samples were diluted to appropriate activity before injection in a buffer containing ascorbic acid, ethanol, and polysorbate-20. […], and PSC-PEG2-TATE (Fig. 1) were radiolabeled at a specific activity of 444 MBq per 50 μg (or 27.5 nmol) in a chelation buffer containing 5% ethanol, 20 mM ascorbic acid, and 0.02% polysorbate 80. The chelation of ^212Pb appears to occur more slowly with the PSC than with the DOTA and DOTAM chelators. […] The RCY remained above 95% at 24 h for all compounds.

[7] abbreviates: time-activity curve of %ID/g at 1, 4, 24 h, decay corrected to time of collection.

As for `C[C@@H](O)[C@H](NC(=O)[C@@H]1CSSC[C@H](NC(=O)[C@@H](Cc2ccccc2)NC(=O)CN2CCN(CC(=O)O)CCN(CC(N)=O)CCN(CC(=O)O)CC2)C(=O)N[C@@H](Cc2ccc(O)cc2)C(=O)N[C@H](Cc2c[nH]c3ccccc23)C(=O)N[C@@H](CCCCN)C(=O)N[C@@H]([C@@H](C)O)C(=O)N1)C(=O)O` [[^212Pb]Pb-PSC-TATE, PSC-D-Phe-cyclo(Cys-Tyr-D-Trp-Lys-Thr-Cys)Thr-COOH, metal not drawn], in data set [1] (mouse, in vivo), the “AR42J tumor AUC” value worked out at 177 ± 22 and the “Kidney AUC” value was 156 ± 24.
Turning to `C[C@@H](O)[C@@H]1NC(=O)[C@H](CCCCN)NC(=O)[C@@H](Cc2ccc(NC(N)=O)cc2)NC(=O)[C@H](Cc2ccc(NC(=O)[C@@H]3CC(=O)NC(=O)N3)cc2)NC(=O)[C@H](NC(=O)[C@H](Cc2ccc(Cl)cc2)NC(=O)CN2CCN(CC(N)=O)CCN(CC(N)=O)CCN(CC(N)=O)CC2)CSSC[C@@H](C(=O)N[C@H](Cc2ccc(O)cc2)C(N)=O)NC1=O` [[^212Pb]Pb-DOTAM-JR11, DOTAM-p-Cl-Phe-cyclo(D-Cys-Aph(Hor)-D-Aph(Cbm)-Lys-Thr-Cys)D-Tyr-ONH2, metal not drawn] (DO3AM-[Phe(4-Cl)][dC][Phe(4-NH2)](Dihydroorotyl(S))[dPhe(4-NHCONH2)]KTC[dY]-NH2; disulfide 2-7), in data set [1] (mouse, in vivo), the “AR42J tumor AUC” value turned out to be 363 ± 75; the “Kidney AUC” value came out at 274 ± 19; the tumor retention result is reported as “favorable tumor retention”; the “uptake in healthy tissues such as the stomach, the lungs, and spleen” value is listed as “higher compared with uptake of the other SSTR2 analogs”.
As for `C[C@@H](O)[C@H](NC(=O)[C@@H]1CSSC[C@H](NC(=O)[C@@H](Cc2ccccc2)NC(=O)CN2CCN(CC(N)=O)CCN(CC(N)=O)CCN(CC(N)=O)CC2)C(=O)N[C@@H](Cc2ccc(O)cc2)C(=O)N[C@H](Cc2c[nH]c3ccccc23)C(=O)N[C@@H](CCCCN)C(=O)N[C@@H]([C@@H](C)O)C(=O)N1)C(=O)O` [[^212Pb]Pb-DOTAMTATE, metal not drawn], the tissue uptake at 4 h in data set [2] was roughly 50 %ID/g. Further, in data set [1] (mouse, in vivo), the “AR42J tumor AUC” value was found to be 583 ± 58; the “Kidney AUC” value is on record as 186 ± 28; the “uptake in healthy tissues such as the stomach, the lungs, and spleen” value was “higher compared with uptake of the other SSTR2 analogs”.
For `C[C@@H](O)[C@H](NC(=O)[C@@H]1CSSC[C@H](NC(=O)[C@@H](Cc2ccccc2)NC(=O)CCOCCOCCNC(=O)CN2CCN(CC(=O)O)CCN(CC(N)=O)CCN(CC(=O)O)CC2)C(=O)N[C@@H](Cc2ccc(O)cc2)C(=O)N[C@H](Cc2c[nH]c3ccccc23)C(=O)N[C@@H](CCCCN)C(=O)N[C@@H]([C@@H](C)O)C(=O)N1)C(=O)O` [[^212Pb]Pb-PSC-PEG2-TATE, PSC-amino-PEG2-acid-D-Phe-cyclo(Cys-Tyr-D-Trp-Lys-Thr-Cys)Thr-COOH, metal not drawn], in data set [1] (mouse, in vivo), the “AR42J tumor AUC” value was 274 ± 59 and the “Kidney AUC” value is 290 ± 27.
On to `C[C@@H](O)[C@@H]1NC(=O)[C@H](CCCCN)NC(=O)[C@@H](Cc2c[nH]c3ccccc23)NC(=O)[C@H](Cc2ccc(O)cc2)NC(=O)[C@@H](NC(=O)[C@@H](Cc2ccccc2)NC(=O)CN2CCN(CC(=O)O)CCN(CC(N)=O)CCN(CC(=O)O)CC2)CSSC[C@@H](C(=O)N[C@H](CO)[C@@H](C)O)NC1=O` [^212Pb-PSC-TOC, PSC-D-Phe-cyclo(Cys-Tyr-D-Trp-Lys-Thr-Cys)Thr-OH, metal not drawn], for which, in data set [1] (mouse, in vivo), the “AR42J tumor AUC” value was 353 ± 52 and the “Kidney AUC” value was 377 ± 34.
Regarding octreotide [TOC], in data set [3], the “affinity for somatostatin receptor 3” value is “high affinity”. In addition, the “affinity for SSTR2” value in data set [4] was “high affinity”. Besides, the “affinity for somatostatin receptor 5” value in data set [5] was “high affinity”.
`C[C@@H](O)[C@H](NC(=O)[C@@H]1CSSC[C@H](NC(=O)[C@@H](Cc2ccccc2)NC(=O)CN2CCN(CC(=O)O)CCN(CC(=O)O)CCN(CC(=O)O)CC2)C(=O)N[C@@H](Cc2ccc(O)cc2)C(=O)N[C@H](Cc2c[nH]c3ccccc23)C(=O)N[C@@H](CCCCN)C(=O)N[C@@H]([C@@H](C)O)C(=O)N1)C(=O)O` [[^212Pb]Pb-DOTATATE, metal not drawn, reference compound]: the tissue uptake at 4 h in data set [2] (444 kBq, 4 h after injection, i.v., AR42J tumor, read-out: average tumor uptake) is roughly 10 %ID/g. For the same compound, the “Tumor AUC / Kidney AUC ratio (T/K AUC ratio)” value in data set [1] (decay corrected to time of collection) was 0.73. In addition, in data set [1] (setting [7]), the “AR42J tumor AUC” value was 122 ± 12 and the “Kidney AUC” value amounted to 161 ± 21. The “biodistribution profile / accumulation in healthy tissues” value in data set [1] (tumor-bearing female mice) is recorded as “distinctly cleaner”. In addition, the RCY in data set [6] is listed as 98.3% ± 1.2%.
On to `C[C@@H](O)[C@@H]1NC(=O)[C@H](CCCCN)NC(=O)[C@@H](Cc2c[nH]c3ccccc23)NC(=O)[C@H](Cc2ccc(O)cc2)NC(=O)[C@@H](NC(=O)[C@@H](Cc2ccccc2)NC(=O)CCOCCOCCNC(=O)CN2CCN(CC(=O)O)CCN(CC(N)=O)CCN(CC(=O)O)CC2)CSSC[C@@H](C(=O)N[C@H](CO)[C@@H](C)O)NC1=O` [^212Pb-PSC-PEG2-TOC, PSC-amino-PEG2-acid-D-Phe-cyclo(Cys-Tyr-D-Trp-Lys-Thr-Cys)Thr-OH, metal not drawn, reference compound], for which, in data set [1] (mouse, in vivo), the “AR42J tumor AUC” value stood at 290 ± 45 and the “Kidney AUC” value came out at 320 ± 51.
Regarding octreotate, the “affinity for somatostatin receptor 3” value in data set [3] is “minimal binding”. For the same compound, the “binding to SSTR2 relative to TOC” value in data set [4] was “approximately 10 fold”. Moreover, the “affinity for somatostatin receptor 5” value in data set [5] is listed as “moderate affinity”.
